From publication doi:10.1101/2024.07.12.603347

Columns and labels:
[1] = molecular target: Biarylitide crosslinking cytochrome P450Blt; test: UV-visible absorbance titration
[2] = molecular target: Cytochrome P450 RufO (Streptomyces atratus); test: UV-visible absorbance titration

“Nle-RYLH (Nle-1), BytA pentapeptide MRYLH with norleucine in place of Met” showed a Kd [1] of 2100 nM and a Kd [2] of 840 nM.
